From US20190144917

Legend:
[1] = test system: S1: Biotin-CGPVGLIGK(Cy7)eGvndneeGffsar-NH2
[2] = test system: S3: Biotin-CGPLGVRGKK(Cy7)eGvndneeGffsar-NH2
[3] = test system: C1-NPs: fluorescein-conjugated MMP substrate peptide C1 (FAM-sk-PLGLEEA-GC) coupled to iron oxide nanoparticles
[4] = test system: DMNPE-veiled C1-NPs (STREAMs)
[5] = test system: S2: Biotin-CGPVPLSLVMK(Cy7)eGvndneeGffsar-NH2
Sequence of S2: Biotin-CGPVPLSLVMK(Cy7)eGvndneeGffsar-NH2 (chain, as listed by the source): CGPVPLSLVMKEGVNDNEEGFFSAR

Sequence of recombinant MMP9 (chain, as listed by the source): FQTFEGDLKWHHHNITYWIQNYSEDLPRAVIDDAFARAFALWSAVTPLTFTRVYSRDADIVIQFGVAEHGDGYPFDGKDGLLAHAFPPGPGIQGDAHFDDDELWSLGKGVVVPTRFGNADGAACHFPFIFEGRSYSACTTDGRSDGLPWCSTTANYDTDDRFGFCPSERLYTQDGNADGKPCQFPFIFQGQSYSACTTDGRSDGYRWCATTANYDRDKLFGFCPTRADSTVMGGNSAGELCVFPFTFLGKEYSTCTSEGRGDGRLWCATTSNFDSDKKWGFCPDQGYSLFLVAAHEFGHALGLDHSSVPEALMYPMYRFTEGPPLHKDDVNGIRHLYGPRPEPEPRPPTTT
Sequence of recombinant MMP2 (chain, as listed by the source): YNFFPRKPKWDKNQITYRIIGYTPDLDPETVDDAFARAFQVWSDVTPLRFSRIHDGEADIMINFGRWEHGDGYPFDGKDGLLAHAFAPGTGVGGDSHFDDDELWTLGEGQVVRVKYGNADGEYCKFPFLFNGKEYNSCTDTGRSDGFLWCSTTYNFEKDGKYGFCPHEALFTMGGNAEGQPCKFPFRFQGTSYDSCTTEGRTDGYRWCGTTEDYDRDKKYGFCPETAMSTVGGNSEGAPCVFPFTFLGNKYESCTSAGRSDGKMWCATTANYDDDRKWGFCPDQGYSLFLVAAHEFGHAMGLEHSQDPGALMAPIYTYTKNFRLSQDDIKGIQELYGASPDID
Sequence of S3: Biotin-CGPLGVRGKK(Cy7)eGvndneeGffsar-NH2 (chain, as listed by the source): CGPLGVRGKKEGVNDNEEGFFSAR
Sequence of S1: Biotin-CGPVGLIGK(Cy7)eGvndneeGffsar-NH2 (chain, as listed by the source): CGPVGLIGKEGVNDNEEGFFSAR
Sequence of recombinant MMP19 (chain, as listed by the source): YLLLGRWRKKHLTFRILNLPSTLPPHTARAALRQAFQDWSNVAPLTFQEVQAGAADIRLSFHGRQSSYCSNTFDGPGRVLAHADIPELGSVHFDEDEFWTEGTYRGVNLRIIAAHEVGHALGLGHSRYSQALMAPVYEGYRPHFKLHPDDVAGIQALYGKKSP

Row | Substance | relative proteolysis (Cy7 signal after streptavidin depletion of uncleaved peptide) [1] | relative proteolysis (Cy7 signal after streptavidin depletion of uncleaved peptide) [2] | proteolysis (fluorescence dequenching) [3] | proteolysis (fluorescence dequenching) [4] | other results
1 | recombinant MMP2 | responded primarily to MMP2 and MMP9 | responded primarily to MMP2 and MMP9 | – | – | –
2 | recombinant MMP9 | responded primarily to MMP2 and MMP9 | responded primarily to MMP2 and MMP9 | significantly cleaved by MMP13, 7, 1, and 9 | marked reduction in proteolysis | catalytic efficiency (Michaelis-Menten fit) [3]: catalytic efficiencies>10^3 M^-1 s^-1 and 10^4 M^-1 s^-1, respectively
3 | recombinant MMP13 | – | – | significantly cleaved by MMP13, 7, 1, and 9 | marked reduction in proteolysis | fluorescence dequenching measurements of protease cleavage [3]: with MMP13 as the most efficient
4 | recombinant MMP19 | – | – | – | – | relative proteolysis (Cy7 signal after streptavidin depletion of uncleaved peptide) [5]: cleaved efficiently by MMP7 and MMP19
5 | recombinant thrombin | – | – | – | – | cleavage monitored by fluorescence release [4]: reduced cleavage of the substrate
